Nine molecules from US20190315886A1 (JIANGSU HENGRUI MEDICINE, published 2019) can be followed below.

For test [1], the target named is T1, human prothrombin with His tag (human, UniProt P00734 44-622).
T1 construct: also called h-prothrombin-his
The test is described as follows: binding ELISA.

Test [2] addresses T2, mouse thrombin with His tag (mouse, UniProt P19221 325-618, limits assumed).
T2 construct: also called m-thrombin-His; murine thrombin
The test is described as follows: binding ELISA. (In general: In an ELISA, binding on a coated surface is turned into a signal by an enzyme label.)

Test [3] deals with T3, human thrombin with His tag (human, UniProt P00734 328-622). The test is described as follows: binding ELISA.
In test [4] the target is T1, human prothrombin with His tag. The test is described as follows: BIAcore.
Test [5] concerns the target T3, human thrombin with His tag. The test is described as follows: BIAcore.
Test [6] has the same target. In words: binding ELISA, biotinylated His-tagged human thrombin on streptavidin plate. The source says:
The binding ability of anti-thrombin antibody was detected by ELISA assay with the antibodies and the human thrombin with His tag. Thrombin protein with His tag labeled with the biotin-labeling kit (Dongren Chemicals, Cat No. LK03) was immobilized into a 96-well microtiter plate by binding to streptavidin coated on the microtiter plate, the strength of the signal after the addition of the antibody was used to determine the binding activity of the antibody to thrombin. The specific experimental method is as follows.
Streptavidin (Sigma, Cat No. S4762-5MG) was diluted to a concentration of 5 μg/ml with PBS buffer, pH 7.4 (Sigma, Cat No. P4417-100TAB) and added to a 96-well plate at a volume of 50 μl/well, and then, the plate was incubated in the incubator at 37° C. for 2 hours. After discarding the liquid, the plates were blocked with 200 μl/well of blocking solution containing 5% skim milk (Guangming skim milk) in PBS, and incubated in the incubator at 37° C. for 2.5 hours or overnight at 4° C. (16-18 hours). After blocking, the blocking solution was discarded and the plate was washed 5 times with PB ST buffer (PBS containing 0.05% tweeen-20, pH7.4). Human thrombin protein with His tag labeled with the biotin-labeling (SEQ ID NO: 2, as shown by the double underline) was diluted with sample dilution (PBS containing 1% BSA, PH7.4) to 50 μg/ml and was added to each well, 50 μl/well. Then the plate was incubated in the incubator at 37° C. for 2 h or overnight. After incubation, the blocking solution in the plate was discarded, and the plate was washed with PBST 6 times, and then 50 μl/well of various concentrations of the test antibodies diluted with sample dilution was added to each well, and the plate was incubated at 37° C. for 2 h. The plates were washed 5 times with PBST after incubation, and 100 μl/well of goat anti-human secondary antibody (Jackson Immuno Research, Cat No. 109-035-003) labeled with HRP was added to each well, diluted in sample dilution, and the plate was incubated at 37° C. for 1 h. After washing the plates 5 times with PBST, 50 μl/well of TMB chromogenic substrate (KPL, Cat No. 52-00-03) was added to each well, and incubated at room temperature for 10-15 min. The reaction was stopped by the addition of 50 μl/well 1M H₂SO₄ to each well.

Test [7] has as its target T1, human prothrombin with His tag. The test is described as follows: Biacore. For orientation: In SPR one partner is held on a chip, and binding of the other changes the refractive index at the surface.
For test [8], the target named is T3, human thrombin with His tag. In words: Biacore.
In test [9] the target is T1, human prothrombin with His tag. The test is described as follows: Biacore; reference h1601-008.
Test [10] addresses T3, human thrombin with His tag. The test is described as follows: Biacore; reference h1601-008.
Test [11] shares this target. The test is described as follows: Biacore; ratio of KD on pro-thrombin to KD on thrombin.
Test [12] shares this target. The test is described as follows: biacore; selectivity thrombin over pro-thrombin, reference h1601-008.
Test [13] has the same target. The test is described as follows: BIAcore, antibody captured by anti-human antibody.
For test [14], the target named is T1, human prothrombin with His tag. The test is described as follows: BIAcore, antibody captured by anti-human antibody.

B1: chimeric antibody CH-1601 (antibody, human IgG4 S228P, kappa, V domains shown)
VH: EVKLVESEGGLVQPGSSLKLSCTASGFTFSDYYMAWVRQVPEKGLEWVANINSDGSSTYYLDSLKSRFIISRDNAKNILYLQMSSLKSEDTATYYCARDHYHGNSYVFDYWGQGTTLTVSS
VL: DIQMTQSSSSFSVSRGNRVTITCKASEDIYNRLAWYQQKPGNAPRLIISGATSLETGVPSRFSGSGSGKDYTLSITSLQTEDVGTYYCQQYWSTPWTFGGGTKLEIKR
B1: the EC50 (in general, the concentration giving half of the maximal effect) in [1] was 42.6 nM; in [3], 0.71 nM. Moreover, in test [2], the binding result is “no binding”. The figures for the Kd in [4] and in test [5] were 78.7 nM and 2.27 nM, respectively.

B2: humanized antibody h1601-005 (antibody, human IgG4 S228P, kappa, V domains shown)
VH: EVQLVESGGGLVQPGGSLRLSCAASGFTFSDYYMAWVRQAPGKGLEWVSNINSDGSSTYYLDSLKSRFTISRDNSKNTLYLQMNSLKAEDTAVYYCARDHYHGNSYVFDYWGQGTTVTVSS
VL: DIQMTQSPSSLSASVGDRVTITCKASEDIYNRLAWYQQKPGKAPKLLISGATSLETGVPSRFSGSGSGKDFTLTISSLQPEDFATYYCQQYWSTPWTFGGGTKVEIKR
Regarding B2, in test [6], a half-maximal response (EC50) required 5.8 nM.

B3: aTM-2 (antibody, V domains shown)
VH: EVQLVESGGGLVQPGGSLRLSCAASGFTFSDYYMAWVRQAPGKGLEWVSNINSDGSSTYYLDSLKSRFTISRDNSKNTLYLQMNSLKAEDTAVYYCARDHYLGNSYVFDSWGQGTTVTVSS
VL: DIQMTQSPSSLSASVGDRVTITCKASEDIYNRLAWYQQKPGKAPRLIISGATSLETGVPSRFSGSGSGKDYTLTISSLQPEDFATYYCQQYWSTPWTFGGGTKVEIK
As for B3, the Kd – broadly, the equilibrium constant for the complex coming apart – in test [7] came out at 1.23 nM; in test [8] it was 0.0899 nM. Moreover, the “Fold of Affinity relative to h1601-008” value stood at 62.4 fold in test [9] and 86.5 fold in test [10]. For the same molecule, in [11], the Selective activity amounted to 13.7.

B4: aTM-1 (antibody, V domains shown)
VH: EVQLVESGGGLVQPGGSLRLSCAASGFTFSDYYMAWVRQAPGKGLEWVSNINSDGSSTYYLDSLKSRFTISRDNSKNTLYLQMNSLKAEDTAVYYCARDHYIGASYVFDYWGQGTTVTVSS
VL: DIQMTQSPSSLSASVGDRVTITCKASEDIYNRLAWYQQKPGKAPRLIISGATSLETGVPSRFSGSGSGKDYTLTISSLQPEDFATYYCQQYWSTPWTFGGGTKVEIK
Consider B4, for which the Kd is 3.48 nM in test [7] and 0.191 nM in [8]. In addition, the “fold increase of selectivity (against h1601-008)” value in [12] was 1.8 times. Further, the “Fold of Affinity relative to h1601-008” value in test [9] was found to be 22.1 fold; in test [10], 40.7 fold. Further, in test [11], the Selective activity came to 18.2.

B5: humanized antibody h1601-006 (antibody, human IgG4 S228P, kappa, V domains shown)
VH: EVKLVESGGGLVQPGGSLRLSCAASGFTFSDYYMAWVRQAPGKGLEWVANINSDGSSTYYLDSLKSRFTISRDNSKNTLYLQMNSLKAEDTAVYYCARDHYHGNSYVFDYWGQGTTVTVSS
VL: DIQMTQSPSSLSASVGDRVTITCKASEDIYNRLAWYQQKPGKAPKLLISGATSLETGVPSRFSGSGSGKDFTLTISSLQPEDFATYYCQQYWSTPWTFGGGTKVEIKR
With B5, a half-maximal effect in test [6] (EC50) was put at 4.45 nM.

B6: aTM-7 (antibody, V domains shown)
VH: EVQLVESGGGLVQPGGSLRLSCAASGFTFSDYYMAWVRQAPGKGLEWVSNINSDGSSTYYLDSLKSRFTISRDNSKNTLYLQMNSLKAEDTAVYYCARDHYMGNSYVFDTWGQGTTVTVSS
VL: DIQMTQSPSSLSASVGDRVTITCKASEDIYNRLAWYQQKPGKAPRLIISGATSLETGVPSRFSGSGSGKDYTLTISSLQPEDFATYYCQQYWSTPWTFGGGTKVEIK
With B6, the Kd in test [7] came to 2.05 nM; in [8], 0.172 nM. The “Fold of Affinity relative to h1601-008” value in test [9] was 37.5 fold; in [10], 45.2 fold. The Selective activity in test [11] amounted to 11.9.

B7: aTM-4 (antibody, V domains shown)
VH: EVQLVESGGGLVQPGGSLRLSCAASGFTFSDYYMAWVRQAPGKGLEWVSNINSDGSSTYYLDSLKSRFTISRDNSKNTLYLQMNSLKAEDTAVYYCARDHYLGNSYVFDLWGQGTTVTVSS
VL: DIQMTQSPSSLSASVGDRVTITCKASEDIYNRLAWYQQKPGKAPRLIISGATSLETGVPSRFSGSGSGKDYTLTISSLQPEDFATYYCQQYWSTPWTFGGGTKVEIK
As for B7, the Kd in [7] was determined as 2.62 nM; in [8], 0.144 nM. Moreover, the “Fold of Affinity relative to h1601-008” value is 29.3 fold in test [9] and 54 fold in test [10]. In [11], the Selective activity amounted to 18.2.

B8: humanized antibody h1601-009 (antibody, human IgG4 S228P, kappa, V domains shown)
VH: EVKLVESGGGLVQPGGSLRLSCAASGFTFSDYYMAWVRQAPGKGLEWVANINSDGSSTYYLDSLKSRFTISRDNSKNTLYLQMNSLKAEDTAVYYCARDHYHGNSYVFDYWGQGTTVTVSS
VL: DIQMTQSPSSLSASVGDRVTITCKASEDIYNRLAWYQQKPGKAPRLIISGATSLETGVPSRFSGSGSGKDYTLTISSLQPEDFATYYCQQYWSTPWTFGGGTKVEIKR
In test [6], B8 showed an EC50 of 1.49 nM. In test [13], this molecule gave a Kd of 8.17 nM.

B9: humanized antibody h1601-008 (antibody, human IgG4 S228P, kappa, V domains shown)
VH: EVQLVESGGGLVQPGGSLRLSCAASGFTFSDYYMAWVRQAPGKGLEWVSNINSDGSSTYYLDSLKSRFTISRDNSKNTLYLQMNSLKAEDTAVYYCARDHYHGNSYVFDYWGQGTTVTVSS
VL: DIQMTQSPSSLSASVGDRVTITCKASEDIYNRLAWYQQKPGKAPRLIISGATSLETGVPSRFSGSGSGKDYTLTISSLQPEDFATYYCQQYWSTPWTFGGGTKVEIKR
With B9, the Kd in [7] came to 76.8 nM; in test [8] it was 7.78 nM; in test [14] it was 94.3 nM; in test [13] it was 8.97 nM. In test [6], this molecule had an EC50 of 1.54 nM. Moreover, the “Fold of Affinity relative to h1601-008” value in [9] and in test [10] was 1 fold throughout. The Selective activity in test [11] was determined as 9.9.
